Data reported in paper PMC10786891, “Massively parallel profiling of RNA-targeting CRISPR-Cas13d”.
Numbering of substitutions follows the chain as printed. Names may count otherwise.

T1: EsCas13d, nuclease-dead (Eubacterium siraeum, UniProt B0MS50, R295A;H300A;R849A;H854A)
T1 sequence: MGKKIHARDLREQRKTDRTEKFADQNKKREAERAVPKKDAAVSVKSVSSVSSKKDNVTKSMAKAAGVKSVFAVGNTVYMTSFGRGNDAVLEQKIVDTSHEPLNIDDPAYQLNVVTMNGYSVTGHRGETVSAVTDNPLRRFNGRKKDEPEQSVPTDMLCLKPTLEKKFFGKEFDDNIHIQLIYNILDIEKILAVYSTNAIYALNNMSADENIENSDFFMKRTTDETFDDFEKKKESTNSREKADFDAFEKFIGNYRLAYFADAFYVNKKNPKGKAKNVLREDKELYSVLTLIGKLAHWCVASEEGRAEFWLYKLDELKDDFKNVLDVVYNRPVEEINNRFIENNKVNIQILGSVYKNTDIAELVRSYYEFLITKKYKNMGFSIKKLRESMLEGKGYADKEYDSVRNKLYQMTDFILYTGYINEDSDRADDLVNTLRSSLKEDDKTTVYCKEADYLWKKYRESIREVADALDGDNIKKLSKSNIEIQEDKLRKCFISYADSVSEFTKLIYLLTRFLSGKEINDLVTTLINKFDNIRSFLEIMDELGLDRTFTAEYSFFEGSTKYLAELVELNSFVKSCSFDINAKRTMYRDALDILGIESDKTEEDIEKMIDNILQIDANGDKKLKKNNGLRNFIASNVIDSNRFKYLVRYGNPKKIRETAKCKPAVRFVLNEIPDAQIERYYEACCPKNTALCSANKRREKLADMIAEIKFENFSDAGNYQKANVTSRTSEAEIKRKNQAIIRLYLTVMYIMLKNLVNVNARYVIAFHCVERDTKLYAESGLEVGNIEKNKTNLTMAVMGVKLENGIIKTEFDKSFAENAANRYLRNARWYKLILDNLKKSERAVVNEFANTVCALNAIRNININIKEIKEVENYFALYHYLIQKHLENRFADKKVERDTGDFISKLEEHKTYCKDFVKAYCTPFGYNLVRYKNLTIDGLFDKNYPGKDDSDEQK

B1: target 3 insC 3' of 5,insG 3' of 5 (mixed)
RNA 1: CACCCGUGCAAAAUUGCAGGGGUCUAAAACGACCUGAAUAUUUCAGAUCAAA
RNA 2: GGGAAUGGAUCCACAUCUACGAAUUCGUUUUUGAUCUGAAAUAUUCACGGGUCUGCAGAUCGGAAGAGCACACGU
B2: target 3 insU 3' of 22,insA 3' of 6 (mixed)
RNA 1: B1 RNA 1
RNA 2: GGGAAUGGAUCCACAUCUACGAAUUCGUUUUUUGAUCUGAAAUAUUCAAGGUCUGCAGAUCGGAAGAGCACACGU
B3: target 3 insC 3' of 22,insA 3' of 2 (mixed)
RNA 1: B1 RNA 1
RNA 2: B2 RNA 2 with U31C, A49G, G51U, U52A
B4: target 3 insC 3' of 4,insU 3' of 1 (mixed)
RNA 1: B1 RNA 1
RNA 2: B1 RNA 2 with C48G, G49C, G51U, U52C, C53U
B5: target 3 C1U,G14U (mixed)
RNA 1: B1 RNA 1
RNA 2: GGGAAUGGAUCCACAUCUACGAAUUCGUUUUUGAUCUUAAAUAUUCAGGUUUGCAGAUCGGAAGAGCACACGU
B6: target 1 G5C,U8C (mixed)
RNA 1: CACCCGUGCAAAAAUGCAGGGGUCUAAAACUGAGCGGAUAACCUCUCUAUGG
RNA 2: GGGAAUGGAUCCACAUCUACGAAUUCGUACCAUAGAGAGGUUACCCCCUCACCGAGAUCGGAAGAGCACACGU
B7: target 3 insA 3' of 3,insC 3' of 3 (mixed)
RNA 1: B1 RNA 1
RNA 2: B1 RNA 2 with C48G, G50A, G51C
B8: target 3 insU 3' of 9,insC 3' of 9 (mixed)
RNA 1: B1 RNA 1
RNA 2: B1 RNA 2 with U45C, C46U, A47U, G49A
B9: target 3 U2A,U22A (mixed)
RNA 1: B1 RNA 1
RNA 2: B5 RNA 2 with U30A, U38G, U50A, U51C
B10: target 3 insC 3' of 4,insC 3' of 4 (mixed)
RNA 1: B1 RNA 1
RNA 2: B1 RNA 2 with C48G, G49C, G50C
B11: target 3 G3C,U22G (mixed)
RNA 1: B1 RNA 1
RNA 2: B5 RNA 2 with U30G, U38G, G49C, U51C
B12: target 3 A11C,U22A (mixed)
RNA 1: B1 RNA 1
RNA 2: B5 RNA 2 with U30A, U38G, A41C, U51C
B13: target 3 insA 3' of 22,insG 3' of 5 (mixed)
RNA 1: B1 RNA 1
RNA 2: B2 RNA 2 with U31A, A49G
B14: target 3 G4U,C6A (mixed)
RNA 1: B1 RNA 1
RNA 2: B5 RNA 2 with U38G, C46A, G48U, U51C
B15: target 3 C6U,U21G (mixed)
RNA 1: B1 RNA 1
RNA 2: B5 RNA 2 with U31G, U38G, C46U, U51C

Molecular target: T1, EsCas13d, nuclease-dead
Test: crRNA (strand 1, pre-loaded); Mg2+; 40 mM Tris-HCl pH 7.5, 150 mM NaCl, 6 mM MgCl2, 1 mM DTT, 0.1% Tween-20, 0.2 mg/ml BSA; 25 C; 10 min per concentration, then washed
Details: tags: His6-TwinStrep-SUMO cleaved; N-terminal SNAP kept (SNAP-Surface 488); label: 3' end held by stalled T7 RNA polymerase

Point of comparison: B15, Kd 110 ± 40 nM. Against it:
- B1 — 20-fold lower, 5.57 ± 0.52 nM
- B2 — 15-fold lower, 7.2 ± 0.55 nM
- B3 — 1.9-fold lower, 59 ± 10 nM
- B4 — within error, 72.5 ± 33.5 nM
- B5 — within error, 72.5 ± 19 nM
- B6 — 17-fold lower, 6.4 ± 0.4 nM
- B7 — 4.8-fold lower, 22.8 ± 2.35 nM
- B8 — within error, 96.5 ± 19 nM
- B9 — 3.4-fold lower, 32.8 ± 2.85 nM
- B10 — 3.2-fold lower, 34.5 ± 8.5 nM
- B11 — within error, 79.5 ± 13 nM
- B12 — within error, ~90 nM
- B13 — 4.8-fold lower, 23.1 ± 3.4 nM
- B14 — 3.7-fold lower, 29.5 ± 7.5 nM
